Laboratory results published in patent US8969060B2, “Modified glucose dehydrogenase” (Ikeda Food Research Co., Ltd., priority 2011, dated 2015).

B1: G352E: modified GLD: SEQ ID NO: 1 with substitution G352E (protein, listed as Aspergillus terreus)
chain: MLGKLSFLSALSLAVAAPLSNSTSAKYDYIVIGGGTSGLAVANRLSEDPNVNVLILEAGGSVWNNPNVTNVDGYGLAFGSDIDWQYQSVNQPYGGNLSQVLRAGKALGGTSTINGMAYTRAEDVQIDAWETIGNTGWTWKNLFPYYRKSENFTVPTKSQTSLGASYEAGAHGHEGPLDVAFTQIESNNLTTYLNRTFQGMGLPWTEDVNGGKMRGFNLYPSTVNLEEYVREDAARAYYWPYKSRPNLHVLLNTFANRIVWDGEAHDGHITASGVEITSRNGTVRVINAEKEVIVSAGALKSPAILELSGIGNPSVLDKHNIPVKVNLPTVGENLQDQVNSHMDASGNTSISETKAVSYPDVYDVFGDEAESVAKQIRANLKQYAADTAKANGNIMKAADLERLFEVQYDLIFKGRVPIAEVLNYPGSATSVFAEFWALLPFARGSVHIGSSNPAEFPVINPNYFMLDWDAKSYVAVAKYIRRSFESYPLSSIVKESTPGYDVIPRNASEQSWKEWVFDKNYRSNFHPVGTAAMMPREIGGVVDERLNVYGTTNVRVVDASVLPFQVCGHLVSTLYAVAERAADLIKADAGRR
modifications: SIGNAL (1)..(19)
B2: S272T + A298V + A369T: modified GLD: SEQ ID NO: 1 with substitutions S272T, A298V, A369T (protein, listed as Aspergillus terreus)
chain: MLGKLSFLSALSLAVAAPLSNSTSAKYDYIVIGGGTSGLAVANRLSEDPNVNVLILEAGGSVWNNPNVTNVDGYGLAFGSDIDWQYQSVNQPYGGNLSQVLRAGKALGGTSTINGMAYTRAEDVQIDAWETIGNTGWTWKNLFPYYRKSENFTVPTKSQTSLGASYEAGAHGHEGPLDVAFTQIESNNLTTYLNRTFQGMGLPWTEDVNGGKMRGFNLYPSTVNLEEYVREDAARAYYWPYKSRPNLHVLLNTFANRIVWDGEAHDGHITATGVEITSRNGTVRVINAEKEVIVSAGVLKSPAILELSGIGNPSVLDKHNIPVKVNLPTVGENLQDQVNSHMDASGNTSISGTKAVSYPDVYDVFGDETESVAKQIRANLKQYAADTAKANGNIMKAADLERLFEVQYDLIFKGRVPIAEVLNYPGSATSVFAEFWALLPFARGSVHIGSSNPAEFPVINPNYFMLDWDAKSYVAVAKYIRRSFESYPLSSIVKESTPGYDVIPRNASEQSWKEWVFDKNYRSNFHPVGTAAMMPREIGGVVDERLNVYGTTNVRVVDASVLPFQVCGHLVSTLYAVAERAADLIKADAGRR
modifications: SIGNAL (1)..(19)
B3: H341L: modified GLD: SEQ ID NO: 1 with substitution H341L (protein, listed as Aspergillus terreus)
chain: MLGKLSFLSALSLAVAAPLSNSTSAKYDYIVIGGGTSGLAVANRLSEDPNVNVLILEAGGSVWNNPNVTNVDGYGLAFGSDIDWQYQSVNQPYGGNLSQVLRAGKALGGTSTINGMAYTRAEDVQIDAWETIGNTGWTWKNLFPYYRKSENFTVPTKSQTSLGASYEAGAHGHEGPLDVAFTQIESNNLTTYLNRTFQGMGLPWTEDVNGGKMRGFNLYPSTVNLEEYVREDAARAYYWPYKSRPNLHVLLNTFANRIVWDGEAHDGHITASGVEITSRNGTVRVINAEKEVIVSAGALKSPAILELSGIGNPSVLDKHNIPVKVNLPTVGENLQDQVNSLMDASGNTSISGTKAVSYPDVYDVFGDEAESVAKQIRANLKQYAADTAKANGNIMKAADLERLFEVQYDLIFKGRVPIAEVLNYPGSATSVFAEFWALLPFARGSVHIGSSNPAEFPVINPNYFMLDWDAKSYVAVAKYIRRSFESYPLSSIVKESTPGYDVIPRNASEQSWKEWVFDKNYRSNFHPVGTAAMMPREIGGVVDERLNVYGTTNVRVVDASVLPFQVCGHLVSTLYAVAERAADLIKADAGRR
modifications: SIGNAL (1)..(19)
B4: H341R + G499S: modified GLD: SEQ ID NO: 1 with substitutions H341R, G499S (protein, listed as Aspergillus terreus)
chain: MLGKLSFLSALSLAVAAPLSNSTSAKYDYIVIGGGTSGLAVANRLSEDPNVNVLILEAGGSVWNNPNVTNVDGYGLAFGSDIDWQYQSVNQPYGGNLSQVLRAGKALGGTSTINGMAYTRAEDVQIDAWETIGNTGWTWKNLFPYYRKSENFTVPTKSQTSLGASYEAGAHGHEGPLDVAFTQIESNNLTTYLNRTFQGMGLPWTEDVNGGKMRGFNLYPSTVNLEEYVREDAARAYYWPYKSRPNLHVLLNTFANRIVWDGEAHDGHITASGVEITSRNGTVRVINAEKEVIVSAGALKSPAILELSGIGNPSVLDKHNIPVKVNLPTVGENLQDQVNSRMDASGNTSISGTKAVSYPDVYDVFGDEAESVAKQIRANLKQYAADTAKANGNIMKAADLERLFEVQYDLIFKGRVPIAEVLNYPGSATSVFAEFWALLPFARGSVHIGSSNPAEFPVINPNYFMLDWDAKSYVAVAKYIRRSFESYPLSSIVKESTPSYDVIPRNASEQSWKEWVFDKNYRSNFHPVGTAAMMPREIGGVVDERLNVYGTTNVRVVDASVLPFQVCGHLVSTLYAVAERAADLIKADAGRR
modifications: SIGNAL (1)..(19)
B5: L250V + S340G + D399N: modified GLD: SEQ ID NO: 1 with substitutions L250V, S340G, D399N (protein, listed as Aspergillus terreus)
chain: MLGKLSFLSALSLAVAAPLSNSTSAKYDYIVIGGGTSGLAVANRLSEDPNVNVLILEAGGSVWNNPNVTNVDGYGLAFGSDIDWQYQSVNQPYGGNLSQVLRAGKALGGTSTINGMAYTRAEDVQIDAWETIGNTGWTWKNLFPYYRKSENFTVPTKSQTSLGASYEAGAHGHEGPLDVAFTQIESNNLTTYLNRTFQGMGLPWTEDVNGGKMRGFNLYPSTVNLEEYVREDAARAYYWPYKSRPNLHVVLNTFANRIVWDGEAHDGHITASGVEITSRNGTVRVINAEKEVIVSAGALKSPAILELSGIGNPSVLDKHNIPVKVNLPTVGENLQDQVNGHMDASGNTSISGTKAVSYPDVYDVFGDEAESVAKQIRANLKQYAADTAKANGNIMKAANLERLFEVQYDLIFKGRVPIAEVLNYPGSATSVFAEFWALLPFARGSVHIGSSNPAEFPVINPNYFMLDWDAKSYVAVAKYIRRSFESYPLSSIVKESTPGYDVIPRNASEQSWKEWVFDKNYRSNFHPVGTAAMMPREIGGVVDERLNVYGTTNVRVVDASVLPFQVCGHLVSTLYAVAERAADLIKADAGRR
modifications: SIGNAL (1)..(19)
B6: V338 + Q382H: modified GLD: SEQ ID NO: 1 with substitutions at V338 and Q382H (protein, listed as Aspergillus terreus)
chain: MLGKLSFLSALSLAVAAPLSNSTSAKYDYIVIGGGTSGLAVANRLSEDPNVNVLILEAGGSVWNNPNVTNVDGYGLAFGSDIDWQYQSVNQPYGGNLSQVLRAGKALGGTSTINGMAYTRAEDVQIDAWETIGNTGWTWKNLFPYYRKSENFTVPTKSQTSLGASYEAGAHGHEGPLDVAFTQIESNNLTTYLNRTFQGMGLPWTEDVNGGKMRGFNLYPSTVNLEEYVREDAARAYYWPYKSRPNLHVLLNTFANRIVWDGEAHDGHITASGVEITSRNGTVRVINAEKEVIVSAGALKSPAILELSGIGNPSVLDKHNIPVKVNLPTVGENLQDQMNSHMDASGNTSISGTKAVSYPDVYDVFGDEAESVAKQIRANLKHYAADTAKANGNIMKAADLERLFEVQYDLIFKGRVPIAEVLNYPGSATSVFAEFWALLPFARGSVHIGSSNPAEFPVINPNYFMLDWDAKSYVAVAKYIRRSFESYPLSSIVKESTPGYDVIPRNASEQSWKEWVFDKNYRSNFHPVGTAAMMPREIGGVVDERLNVYGTTNVRVVDASVLPFQVCGHLVSTLYAVAERAADLIKADAGRR
modifications: SIGNAL (1)..(19)

Legend:
[1] = Relative enzymatic activity of GLD (DCIP/1-m-PMS, plate reader, yeast culture supernatant) with proflavin hydrochloride present; assay type: biochemical; settings: site-specific mutants, inhibitor final concentration 1 mM
Protocol: (§1) The susceptibility defined in the present specification is evaluated in terms of a relative activity that is determined in a system wherein the inhibitor coexists or not. The relative activity is derived from a relative value (%) of an enzymatic activity (a sample value) obtained with the addition of the inhibitor in the determination of the enzymatic activity described in the present specification as compared with an enzymatic activity (a blank value) as “100%” obtained without the addition of the inhibitor in the same determination. Thus, the higher the relative activity is, the less the susceptibility to the inhibitor is (or the more the susceptibility to the inhibitor is reduced), vice versa.
(§2) The enzymatic activity is determined in the following manner in Examples 3 and 6 wherein a plate reader (Japan Molecular Device Corporation, SpectraMax Plus384) is used. Thus, culture supernatant that had been diluted in advance with an appropriate magnification is added to a 96-well microplate with an amount of 100 μl per well. A reagent for the determination of the enzymatic activity comprising phosphate buffer (pH 7.0), 1.0 M D-glucose, 3 mM DCIP, 3 mM 1-m-PMS and methanol with a volume ratio of 0.1:1:0.14:0.2:0.06 is added to the 96-well microplate with an amount of 100 μl per well, and a change in the absorbance of DCIP at 600 nm (ΔABS/min) is then determined. The enzymatic activity can be calculated by conversion in proportion to a change in the absorbance of an enzyme solution for which the enzymatic activity has already been known by the above-mentioned activity determination procedure using the spectrophotometer.
(§3) In the following examples, a value of the enzymatic activity determined by the spectrometer or plate reader using the above reagent composition is considered as a blank value. On the other hand, a sample value is determined using a methanol solution comprising the inhibitor such as 1,10-phenanthroline or proflavin hydrochloride at a final concentration of 1 mM instead of the methanol. Enzymatic activity (unit/mL)=(−ΔABS/16.3)×3.0/0.05×(Dilution ratio of enzyme) [Equation 1]

[2] = Relative enzymatic activity of GLD (DCIP/1-m-PMS, plate reader, yeast culture supernatant) with 1,10-phenanthroline present; assay type: biochemical; settings: for Relative Activity: random-mutation mutants, sample value with inhibitor at 1 mM / blank value, inhibitor not named in Table 1; for Relative Activity [%] 1,10-Phenanthroline: site-specific mutants, inhibitor final concentration 1 mM
Protocol: as §1, §2, §3
Into each well of a 96-well microplate (manufactured by Nunc, Inc.), a YPD medium containing 125 μL of 1.0% (w/v) yeast extract (manufactured by BD), 2.0% (w/v) tryptone (manufactured by BD), 2.0% (w/v) glucose (manufactured by Wako Pure Chemical Industries, Ltd.) was dispensed, and the transformant colonies obtained in Example 2 were inoculated thereinto one by one.
After shaking culture at 30° C. and 1,000 rpm for 24 hours, the culture mixture was centrifuged and the supernatant was collected.
According to the above-mentioned method for the determination of enzymatic activity, a blank value and a sample value were determined using a plate reader, and the relative activity (%) was obtained by dividing the sample value by the blank value.

| Molecule | Relative Activity [%] Proflavin hydrochloride [1] [%] | Relative Activity [2] [%] | Relative Activity [%] 1,10-Phenanthroline [2] [%] |
| --- | --- | --- | --- |
| B1 | 36.3 | 70.4 | 91.7 |
| B2 |  | 68.6 |  |
| B3 | 66.9 | 69.7 | 92.2 |
| B4 |  | 71.9 |  |
| B5 |  | 43.4 |  |
| B6 |  | 60.0 |  |
